# B1: Azoarcus group I ribozyme (parent)
# chain: GUGCCUUGCGCCGGGAAACCACGCAAGGGAUGGUGUCAAAUUCGGCGAAACCUAAGCGCCCGCCCGGGCGUAUGGCAACGCCGAGCCAAGCUUCGGCGCCUGCGCCGAUGAAGGUGUAGAGACUAGACGGCACCCACCUAAGGCAAACGCUAUGGUGAAGGCAUAGUCCAGGGAGUGGCGAAAGUCACACAAACCGG
# Variants of: B1
# Test: reverse-splicing fitness (ratio to wild type); higher = more active; in vitro selection; Mg2+ level not given
# How it was run: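 An in vitro group I ribozyme library with randomized positions was T7-transcribed and gel-purified. In triplicate, 10 pmol RNA in EPPS pH 7.5 was reacted with 50 pmoles of a 30-nt RNA substrate for 1 h at 37 °C across several added MgCl2 levels (1–48 mM), then stopped with EDTA. Products were reverse transcribed from a substrate-complementary primer, PCR-amplified and sequenced (HiSeq 4000). Fitness is a variant's read proportion after selection over that before, normalised to wild type.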
row,Variant,reverse-splicing fitness
1,C82A A111G A120U A145U C150G C169G U176A,0.00352
2,C82A A111G A120U A145G U176A,0.00959
3,C82A A111G A120U A145G U176G,0.00317
4,C82A A111G A120U A145G U176C,0.0165
5,C82A A111G A145C C150U C169A U176G,0.00703
6,C82A A111G A145C C150U C169A U176A,0.0133
7,C82A A111G A145C C150U C169A U176C,0.00698
8,C82A A111G A120U A145C C150A C169G,0.00279
9,C82A A111G A120U A145C C150A C169A,0.00211
10,C82A A111G A120U A145C C150A C169U,0.00264
11,C82A A111G A120G C150U C169U U176C,0.0179
12,C82A A111G A120G C150U C169U U176G,0.00738
13,C82A A111G A120U A145C C150A C169A U176C,0.0024
14,C82A A111G A120U A145C C150A C169A U176A,0.0022
15,C82A A111G A120U A145C C150A C169A U176G,0.00214
16,C82A A111G A120U A145G C150U C169G,0.00703
17,C82A A111G A120U A145G C150U C169U,0.00572
18,C82A A111G A120U A145G C150U C169A,0.00667
19,C82A A111G A120G C169G U176C,0.0229
20,C82A A111G A120G C169G U176A,0.0226
21,C82A A111G A120G C169G U176G,0.00458

row,Variant,reverse-splicing fitness
1,C82A A111G A120U A145U C150A C169U U176A,0.00277
2,C82A A111G A120U A145U C150A C169U U176G,0.0018
3,C82A A111G A120U A145U C150A C169U U176C,0.00285
4,C82A A111G A120G C150U U176C,0.0156
5,C82A A111G A120G C150U U176G,0.00781
6,C82A A111G A120G C150U U176A,0.0108
7,C82A A111G A120U A145U C150U U176A,0.00864
8,C82A A111G A120U A145U C150U U176G,0.00398
9,C82A A111G A120U A145U C150U U176C,0.0108
10,C82A A111G A120U C169U U176A,0.00447
11,C82A A111G A120U C169U U176C,0.00427
12,C82A A111G A120U C169U U176G,0.00235
13,C82A A111G A120U C150G U176A,0.00446
14,C82A A111G A120U C150G U176G,0.0031
15,C82A A111G A120U C150G U176C,0.00582
16,C82A A111G A120U A145C U176G,0.00284
17,C82A A111G A120U A145C U176A,0.00841
18,C82A A111G A120U A145C U176C,0.0111
19,C82A A111G A120G C169U,0.0111
20,C82A A111G A120G C169G,0.0125
21,C82A A111G A120G C169A,0.0105

row,Variant,reverse-splicing fitness
1,C82A A111G A120U A145U C150U C169U U176A,0.00273
2,C82A A111G A120U A145U C150U C169U U176G,0.00222
3,C82A A111G A120U A145U C150U C169U U176C,0.00305
4,C82A A111G A120U A145G C169G U176A,0.00375
5,C82A A111G A120U A145G C169G U176C,0.00421
6,C82A A111G A120U A145G C169G U176G,0.00191
7,C82A A111G A120U A145C C169A U176C,0.00231
8,C82A A111G A120U A145C C169A U176G,0.00163
9,C82A A111G A120U A145C C169A U176A,0.00258
10,C82A A111G A120U A145U C150U C169A U176A,0.00237
11,C82A A111G A120U A145U C150U C169A U176G,0.00171
12,C82A A111G A120U A145U C150U C169A U176C,0.00235
13,C82A A111G A120U C150U C169G U176C,0.00437
14,C82A A111G A120U C150U C169G U176G,0.00175
15,C82A A111G A120U C150U C169G U176A,0.00869
16,C82A A111G A120U A145G C150U C169G U176C,0.00643
17,C82A A111G A120U A145G C150U C169G U176A,0.0115
18,C82A A111G A120U A145G C150U C169G U176G,0.00249
19,C82A A111G A120U C150G C169G U176A,0.00567
20,C82A A111G A120U C150G C169G U176C,0.0034
21,C82A A111G A120U C150G C169G U176G,0.00237

row,Variant,reverse-splicing fitness
1,C82A A111G A120U A145C C150U C169U U176C,0.0025
2,C82A A111G A120U A145C C150U C169U U176A,0.0026
3,C82A A111G A120U A145C C150U C169U U176G,0.00193
4,C82A A111G A120U A145U C150A C169A U176C,0.00213
5,C82A A111G A120U A145U C150A C169A U176G,0.00187
6,C82A A111G A120U A145U C150A C169A U176A,0.00224
7,C82A A111G A145C C150A C169A U176G,0.00644
8,C82A A111G A145C C150A C169A U176C,0.00723
9,C82A A111G A145C C150A C169A U176A,0.0122
10,C82A A111G A120G C169A U176A,0.0178
11,C82A A111G A120G C169A U176C,0.0213
12,C82A A111G A120G C169A U176G,0.00477
13,C82A A111G A120U A145G C150A C169U U176A,0.0049
14,C82A A111G A120U A145G C150A C169U U176C,0.00493
15,C82A A111G A120U A145G C150A C169U U176G,0.00288
16,C82A A111G A120U A145G C169U U176C,0.00338
17,C82A A111G A120U A145G C169U U176G,0.00173
18,C82A A111G A120U A145G C169U U176A,0.00366
19,C82A A111G A120U A145U U176C,0.0146
20,C82A A111G A120U A145U U176A,0.00893
21,C82A A111G A120U A145U U176G,0.00433
